B1: TIP41-like protein (Homo sapiens), O75663 (parent)
chain: MMIHGFQSSHRDFCFGPWKLTASKTHIMKSADVEKLADELHMPSLPEMMFGDNVLRIQHGSGFGIEFNATDALRCVNNYQGMLKVACAEEWQESRTEGEHSKEVIKPYDWTYTTDYKGTLLGESLKLKVVPTTDHIDTEKLKAREQIKFFEEVLLFEDELHDHGVSSLSVKIRVMPSSFFLLLRFFLRIDGVLIRMNDTRLYHEADKTYMLREYTSRESKISSLMHVPPSLFTEPNEISQYLPIKEAVCEKLIFPERIDPNPADSQKSTQVE

Variants of: B1
Settings: with pp2aa_rat Ppp2ca

**Q.** MMIHGFQSSHRDFCFGPWKLTASKTHIMKSADVEKLADELHMPSLPEMMFGDNVLRIQHGSGFGIEFNATLALRCVNNYQGMLKVACAEEWQESRTEGEHSKEVIKPYDWTYTTDYKGTLLGESLKLKVVPTTDHIDTEKLKAREQIKFFEEVLLFEDELHDHGVSSLSVKIRVMPSSFFLLLRFFLRIDGVLIRMNDTRLYHEADKTYMLREYTSRESKISSLMHVPPSLFTEPNEISQYLPIKEAVCEKLIFPERIDPNPADSQKSTQVE [D71L] was tested. Which “effect of a mutation on the interaction” value did it give?
**A.** Its value is “disrupting interaction”.

Reference: IntAct's records for PubMed 23892082
